Where no end group is shown, it is not given here.
Assays:
[1] = biological target: antibody C1, specific for the CRP-derived 8-mer PET sequence YEVQGEVF; assay: peptide competition ELISA; soluble peptide competes with coated target peptide for C1
[2] = biological target: antibody C1, specific for the CRP-derived 8-mer PET sequence YEVQGEVF; assay: peptide competition ELISA
[3] = biological target: antibody P1, specific for the PSA-derived 8-mer PET sequence EPAELTDA; assay: peptide competition ELISA; soluble peptide competes with coated target peptide for P1
[4] = biological target: antibody P1, specific for the PSA-derived 8-mer PET sequence EPAELTDA; assay: peptide competition ELISA

Row | Binder | IC50 [1] | fold higher concentration without effect, against the antigen PET YEVQGEVF [2] | IC50 [3] | fold higher concentration without effect, against the antigen PET EPAELTDA [4]
1 | YEVQGEVF [CRP-derived 8-mer PET peptide YEVQGEVF] | 1 µM |  |  | 
2 | EPAELTDA (not fully specified) [PSA-derived 8-mer PET peptide EPAELTDA] |  |  | 0.04 µM | 
3 | DPTQLTDA [nearest-neighbor 8-mer peptide DPTQLTDA] |  |  | > 1000 µM | 25000 fold

The remaining lines, values ahead:

Row | IC50 [1] | fold higher concentration without effect, against the antigen PET YEVQGEVF [2] | IC50 [3] | fold higher concentration without effect, against the antigen PET EPAELTDA [4] | Binder
4 | > 1000 µM | > 1000 fold |  |  | VEVNGEVF [nearest-neighbor 8-mer peptide VEVNGEVF]
5 | > 1000 µM | > 1000 fold |  |  | YEVLGEEF [nearest-neighbor 8-mer peptide YEVLGEEF]
6 |  |  | > 1000 µM | 25000 fold | EPVELTSA [nearest-neighbor 8-mer peptide EPVELTSA]
